Measured values reported in patent US20260116991A1 (HAINAN SIMCERE ZAIMING PHARMACEUTICAL, published 2026).
Where a chain is given by its changes, count along the chain named.

B1: F1.2.14 (antibody, human IgG1, kappa, V domains shown)
VH: RVQLQQSGAELVKPGASVRMSCKASGYTFTAYSIEWMKQNLGKSLEWIGNFRPYNDDTKYNENFKGRATLTVEKSSATVYLELSRLTSDDSAVYYCARSGPTDYFDYWGQGTTLIVSS
VL: DIQMTQSPASLSASVGETVTITCRASDNIYSYLAWYQQKQGQSPQLLVYNAKTLAEGVPSRFSGSGSVTQFSLKIISLQPEDFGTYYCQHHFGTPRTFGGGTKLEIKR
notes: Human-murine chimeric antibody
B2: F1.21.8 (antibody, human IgG1, kappa, V domains shown)
VH: EVQLQQSGPELVKPGASVKISCKTSGFLFTGHYMHWVKSSHGNILDWIGYIYPYNAISFYNQKFKGKATLTVDKSSNTAYMELRSLTSEDSAVYYCARGDYGNYVTAYWGQGTLVTVSA
VL: DVLMTQTPLSLPVSLGDQASISCRSSQSIVHSSGNTYLEWYLQKPGQSPKLLIYKVSNRFSGVPDRFSGSGSGTDFTLKISRVEAEDLGVYYCFQGSHLPWTFGGGTKLDIKR
notes: as for B1
B3: F1.41.17 (antibody, human IgG1, kappa, V domains shown)
VH: EVQLVESGGDSVKPGGSLKLSCAASGFTFSSYGMSWVRQTPDKRLEWVATINSGGSYTYYQDSVKGRFTISRDNAKNTLYLQMSSLKSEDTAIYYCVRHHYGSSYDYFDYWGQGTTLTVSS
VL: DIVMTQAAPSVPVMPGESVSISCRSSKSLLHSNGNTHLYWFLQRPGQSPQLLIYRMSNLASGVPDRFSGSGSGTAFTLRISRVEAEDVGVYYCMQHLEYPLTFGAGTKLELKR
notes: as for B1
B4: F1.57.21 (antibody, human IgG1, kappa, V domains shown)
VH: QVQLQQSGAELARPGASVKLSCKASGYTFTSYGISWVKQITGQGLEWIGEIYPRSESTYYNEKFKGKATLTADKSSSTAYMELRSLTSEDSAVYFCARDYGNIYSFAYWGQGTLVTVSA
VL: B1 VL with A25T, D27E, Q42K, V68G, I76N, T85S, F92Y, R96L, G100A, I106L
notes: as for B1
B5: F1.78.24 (antibody, human IgG1, kappa, V domains shown)
VH: QVQLQQSGAELVKPGASVKMSCKASGYTFTTYPIEWMKQNHGKSLEWIGNFHPYNDDTNYNVKFKGKATLTVEKSSSTVYLELSRLTSDDSALYYCARRREYYGSFDVWGTGTTVTVSS
VL: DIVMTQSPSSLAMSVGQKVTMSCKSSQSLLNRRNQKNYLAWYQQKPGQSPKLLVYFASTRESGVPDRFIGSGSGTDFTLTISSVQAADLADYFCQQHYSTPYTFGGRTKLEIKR
notes: as for B1
B6: F1.83.6 (antibody, human IgG1, kappa, V domains shown)
VH: QVQLQQSGPELVKPGASVKISCKASGYAFSSSWMNWVKQRPGKGLEWIGRIYPGDGDTNYNGRFKGKATLTVDKSSSTAYMQLSSLTSEDSAVYFCARGGVFTMALDHWGQGTTLTVSS
VL: DIQMTQSPSSLSASLGGKVTITCKASQDINKYIAWYQHKPGKGPRLLIHYTSTLQPGIPSRFSGSGSGRDYSFSISNLEPEDIATYYCLQYDNLFTFGGGTKLEIKR
notes: as for B1

Legend:
monkey GPC3-His protein [1] = molecular target: T1, monkey GPC3-His protein (monkey); assay: ELISA, monkey GPC3-His coated;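 also: Plate-coated antigen at 1 µg/mL, antibody binding 2 h at 37 °C, detected with HRP-labeled secondary antibody and TMB, absorbance at 450 nm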
T1 construct: Bought recombinant protein; also called monkey GPC3 protein

[2] = molecular target: T2, monkey GPC3 on HEK293T-monkey GPC3 cells (monkey); assay: FACS on HEK293T-monkey GPC3 cells;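 also: flow cytometry binding of test antibodies to the cells, read as mean fluorescence intensity, with half-maximal concentration taken from fitted curves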
T2 construct: whole, on cells
Description: The desired cells were expanded to a logarithmic growth phase in a T-75 cell culture flask, the medium was removed by pipetting, and the cells were washed twice with a PBS buffer, and digested with trypsin. Then a complete medium was added to stop the digestion, and the cells were blown into a single cell suspension. After counting, the cells were centrifuged, and the cell pellet was resuspended with an FACS buffer (PBS+2% fetal bovine serum) to 2×10⁶ cells/mL. The cell resuspension solution was added to a 96-well FACS reaction plate at 50 μl/well, and a chimeric antibody sample to be tested was added at 50 μl/well for incubation at 4° C. for 1 h. […] After the plate was centrifuged and washed 3 times with a PBS buffer, 100 μl of the resulting solution was assayed and analyzed by FACS (FACS Canto™, purchased from BD Biosciences). Data analysis was performed by software (FlowJo) to obtain the mean fluorescence intensity (MFI) of the cells. Then, analysis was performed by software (GraphPad Prism8), data were fitted, and EC₅₀ values were calculated.

human GPC3-His protein = molecular target: T3, human GPC3-His protein (human, UniProt P51654 25-559); assay: SPR, antibody captured on Protein A chip, human GPC3-His analyte;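 also: measured at 25 °C flow cell, human GPC3-His injected at five concentrations up to 200 nM, 240 s association, up to 600 s dissociation, double-referenced, fitted to Langmuir 1:1 model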
T3 construct: also called human GPC3 protein; not shown: His tag

monkey GPC3-His protein [3] = molecular target: T1, monkey GPC3-His protein; assay: SPR, antibody captured on Protein A chip, monkey GPC3-His analyte;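 also: run at 25 °C with 240 s association and up to 600 s dissociation, double-referenced, kinetics fitted to a 1:1 Langmuir binding model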

Binder	OD450 at 0.0001 nM (monkey GPC3-His protein [1]) [OD450]	OD450 at 0.001 nM (monkey GPC3-His protein [1]) [OD450]	OD450 at 0.01 nM (monkey GPC3-His protein [1]) [OD450]	OD450 at 0.1 nM (monkey GPC3-His protein [1]) [OD450]	OD450 at 1 nM (monkey GPC3-His protein [1]) [OD450]	OD450 at 10 nM (monkey GPC3-His protein [1]) [OD450]	OD450 at 100 nM (monkey GPC3-His protein [1]) [OD450]	EC50 [2] [nM]	Max MFI [2] [MFI]	Kd (human GPC3-His protein) [nM]	koff (human GPC3-His protein) [s⁻¹]	kon (human GPC3-His protein) [M⁻¹ s⁻¹]	Kd (monkey GPC3-His protein [3]) [nM]	koff (monkey GPC3-His protein [3]) [s⁻¹]	kon (monkey GPC3-His protein [3]) [M⁻¹ s⁻¹]
B1	0.05	0.05	0.07	0.27	0.86	1.03	1.55	1.1	4740	2.37	0.00017	71600	1.25	0.000156	125000
B2	0.05	0.06	0.12	0.51	1	1.11	1.49	0.29	6320	0.271	6.91e-05	255000	0.1	4.65e-05	464000
B3	0.05	0.06	0.11	0.46	0.83	0.81	1.24	0.23	6210	7.91	0.0021	265000	4.42	0.00213	482000
B4	0.05	0.06	0.14	0.77	1.68	2.15	2.3	0.77	5380	21.3	0.00278	131000	13	0.00306	236000
B5	0.05	0.06	0.17	0.55	0.73	0.21	0.37	0.33	6580	7.06	0.00075	106000	3.26	0.000639	196000
B6	0.05	0.05	0.08	0.43	0.62	0.32	0.55	0.53	5880	5.88	0.000493	83900	3.4	0.000503	148000
